PMC2896474, “Thioredoxin A Active-Site Mutants Form Mixed Disulfide Dimers That Resemble Enzyme–Substrate Reaction Intermediates” (Journal of Molecular Biology, 2008)

Molecular target: the molecule itself
Assay: nonreducing SDS-PAGE + capillary gel electrophoresis (2100 Bioanalyzer); purified His6-tagged BsTrxA proteins alone, ~2.5 μg a lane, nonreducing conditions (no DTT, no AMS); peak integration for dimer-to-monomer ratios; dimer to monomers (Fig. 2a)

| Protein | stoichiometry N |
| --- | --- |
| C32S single-mutant BsTrxA, C-terminal His6-tag (enzyme, B. subtilis 168, UniProt P14949 1-104, looked up, In the homodimer the two chains are joined by a Cys29-Cys29 disulfide bond (crystal structure 2VOC); Vector probably adds Leu-Glu before His6 (surmised); also called C32S BsTrxA; TrxA C32S; source: E. coli BL21(DE3), purified (nickel IMAC HisTrap HP, Superdex 75 gel filtration); not shown: His6, C-terminal, kept) MAIVKATDQSFSAETSEGVVLADFWAPWCGPSKMIAPVLEELDQEMGDKLKIVKIDVDENQETAGKYGVMSIPTLLVLKDGEVVETSVGFKPKEALQELVNKHL | 2 |
| C29S single-mutant BsTrxA, C-terminal His6-tag (enzyme, B. subtilis 168, UniProt P14949 1-104, looked up, Vector probably adds Leu-Glu before His6 (surmised); also called C29S BsTrxA; BsTrxA(C29S); source: E. coli BL21(DE3), purified (nickel IMAC HisTrap HP, Superdex 75 gel filtration); not shown: His6, C-terminal, kept) MAIVKATDQSFSAETSEGVVLADFWAPWSGPCKMIAPVLEELDQEMGDKLKIVKIDVDENQETAGKYGVMSIPTLLVLKDGEVVETSVGFKPKEALQELVNKHL | 2 |
